Data reported in paper PMC8724738, “Exon‐independent recruitment of SRSF1 is mediated by U1 snRNP stem‐loop 3”.

Columns and labels:
GB1-SRSF1ΔRS = GB1-SRSF1ΔRS (UniProt Q07955 1-197, del198-248); test: ITC; 27 C; NMR buffer with TCEP; NMR/ITC: 10 mM NaPO4 pH 7.0, 50 mM L-Arg, 50 mM L-Glu, 5 mM DTT (TCEP for ITC); NMR 313 K (FUS 30 C), ITC 27 C; single-molecule: 50% nuclear extract, 3.2 mM MgCl2, 50 mM K-glutamate, 20 mM HEPES pH 7.5, 1.5 mM ATP, 30 C; settings: protein: recombinant; hairpin
FUS RRM = FUS RRM (UniProt P35637 285-371); test: NMR; 30 C; NMR/ITC: 10 mM NaPO4 pH 7.0, 50 mM L-Arg, 50 mM L-Glu, 5 mM DTT (TCEP for ITC); NMR 313 K (FUS 30 C), ITC 27 C; single-molecule: 50% nuclear extract, 3.2 mM MgCl2, 50 mM K-glutamate, 20 mM HEPES pH 7.5, 1.5 mM ATP, 30 C; settings: protein: recombinant; hairpin
FUS RRM, sequence (P35637 285-371): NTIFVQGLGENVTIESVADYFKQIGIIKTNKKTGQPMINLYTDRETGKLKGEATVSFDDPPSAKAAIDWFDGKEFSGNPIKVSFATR

GB1-SRSF1ΔRS, sequence (Q07955 1-197, stated change not applied): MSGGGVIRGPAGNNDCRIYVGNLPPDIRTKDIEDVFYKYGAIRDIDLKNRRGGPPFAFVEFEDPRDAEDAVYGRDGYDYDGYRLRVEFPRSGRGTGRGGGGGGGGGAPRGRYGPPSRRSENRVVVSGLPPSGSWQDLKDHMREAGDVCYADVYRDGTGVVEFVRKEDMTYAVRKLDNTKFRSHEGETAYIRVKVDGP

GCGAUUUCCCCAAAUGUGGGAAACUCGC (structured_RNA) [U1 snRNA stem-loop 3 (SL3) wild type]
Kd (GB1-SRSF1ΔRS): 10.9 ± 2.8 µM
binding result (FUS RRM): binds
